# Test results from paper PMC2924388, “Conformational Adaptation of Asian Macaque TRIMCyp Directs Lineage Specific Antiviral Activity” (PLoS Pathogens, 2010).
# Columns and labels:
# [1] = molecular target: T1, CypA domain of Macaca fascicularis TRIMCyp2 (Mafa TRIMCyp2) (Macaca fascicularis); assay: ITC; MicroCal ITC200; cyclophilin (typical concentration 1.4 mM) in the syringe, capsid (typical concentration 120 µM) in the cell; 50 mM KPO4 pH 7.4, 100 mM NaCl, 1 mM DTT; 15°C; one-state model; conditions: both partners purified
# T1 construct: Cyp 54, 66, 69 and 143 are TRIMCyp 357, 369, 372 and 446. numbers count on: CypA; Natural allele; also called Mafa TCyp2; Mafa Cyp; source: E. coli BL21 (DE3), purified (Ni-NTA, gel filtration)
# [2] = molecular target: T2, CypA domain of Mafa TRIMCyp2 with Cyp K143E (K446E in TRIMCyp) (Macaca fascicularis); assay: as above; conditions: both partners purified
# T2 construct: As m1 but with glutamate at Cyp 143 (the residue of CypA and of Mamu TRIMCyp); also called Mafa TCyp2 K143E; K143E mutant; source: E. coli BL21 (DE3), purified (Ni-NTA, gel filtration), as per the wild-type protein
binder,measurement,setting,value
"FIV capsid N-terminal domain (domain or fragment, Unmodified wild-type domain. Strain and limits are not printed: the Petaluma isolate is assumed. The start is the capsid p24 N-terminus (136); the end is set by homology to HIV-1 CA-N 1-146 (pdb 2X83)) PIQTVNGVPQYVALDPKMVSIFMEKAREGLGGEEVQLWFTAFSANLTPTDMATLIMAAPGCAADKEILDESLKQLTAEYDRTHPPDAPRPLPYFTAAEIMGIGLTQEQQAEARFAPARMQCRAWYLEALGKLAAIKAKS",Kd,[1],27 µM
same,Kd,[2],15 µM
